Test results as given in US20240360201A1 (BIOCYTOGEN PHARMACEUTICALS BEIJING, published 2024).

T1: FcγRIIA-H167-Acro (human, UniProt P12318 36-218, limits assumed)
T1 construct: bought; His at 167; also called Human Fc gamma RIIA/CD32a (H167) Protein, His Tag
T1 sequence (looked up): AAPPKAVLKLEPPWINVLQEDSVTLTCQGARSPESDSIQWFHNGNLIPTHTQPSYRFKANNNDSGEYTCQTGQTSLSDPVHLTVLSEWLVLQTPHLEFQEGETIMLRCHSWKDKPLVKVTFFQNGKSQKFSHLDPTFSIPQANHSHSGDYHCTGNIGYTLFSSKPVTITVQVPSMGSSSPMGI

T2: FcγRIIA-R167-Sino (human, UniProt P12318 34-218, limits assumed)
T2 construct: bought; Arg at 167; also called FCRIIA-R167-Sino; CD32A Protein, Human, Recombinant (167 Arg, His Tag)
T2 sequence (looked up): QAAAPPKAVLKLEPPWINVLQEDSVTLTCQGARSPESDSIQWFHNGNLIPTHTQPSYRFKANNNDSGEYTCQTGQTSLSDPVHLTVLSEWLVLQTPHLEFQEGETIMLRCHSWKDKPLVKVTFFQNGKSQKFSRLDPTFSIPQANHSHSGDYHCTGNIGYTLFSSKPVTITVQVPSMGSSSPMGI


Assays:
FcγRI-Sino [1] = target: T3, FcγRI-Sino (human, UniProt P12314 16-288, limits assumed); experiment: SPR (Biacore T200), antibody captured on protein A sensor chip, Fc receptor as analyte; analyte range 400nm-6.25nm
T3 construct: bought; also called CD64 Protein, Human, Recombinant (His Tag)
T3 sequence (P12314 16-288 limits assumed): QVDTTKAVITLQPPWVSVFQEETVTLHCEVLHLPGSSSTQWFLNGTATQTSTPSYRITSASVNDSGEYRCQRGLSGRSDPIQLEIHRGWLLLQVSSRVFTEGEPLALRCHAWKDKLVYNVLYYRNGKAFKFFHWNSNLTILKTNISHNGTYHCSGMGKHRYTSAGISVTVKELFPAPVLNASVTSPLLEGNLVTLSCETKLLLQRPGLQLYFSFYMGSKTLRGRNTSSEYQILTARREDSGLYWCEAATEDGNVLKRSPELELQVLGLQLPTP
From the text: (§1) The Fc receptors included FcγRIIB (FcγRIIB-Acro), FcγRIIA (FcγRIIA-H167-Acro), FcγRIIIA (FcγRIIIA-V176-Acro), FcγRIIIB (FcγRIIIB-NA1-Acro), FcγRI (FcγRI-Sino), and FcRn (FcRn-Acro).

FcγRIIA-H167-Acro = target: T1, FcγRIIA-H167-Acro; experiment: SPR (Biacore T200), antibody captured on protein A sensor chip, Fc receptor as analyte; analyte range 800nm-6.25nm
From the text: as §1

FcγRIIIB-NA1-Acro = target: T4, FcγRIIIB-NA1-Acro (human, UniProt O75015 17-200, limits assumed); experiment: as above
T4 construct: bought; also called Human Fc gamma RIIIB/CD16b (NA1) Protein, His Tag
T4 sequence (O75015 other isoform, or with tags, fused parts or gaps limits assumed): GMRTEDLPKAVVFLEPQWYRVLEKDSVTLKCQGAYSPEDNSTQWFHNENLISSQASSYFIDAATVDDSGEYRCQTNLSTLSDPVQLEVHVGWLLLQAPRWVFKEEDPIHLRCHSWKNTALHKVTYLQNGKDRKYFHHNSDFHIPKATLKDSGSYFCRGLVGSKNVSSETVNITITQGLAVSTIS
From the text: as §1

FcγRIIIA-V176-Acro = target: T5, FcγRIIIA-V176-Acro (human, UniProt P08637 17-208); experiment: SPR (Biacore T200), antibody captured on protein A sensor chip, Fc receptor as analyte; analyte range 400nm-3.125nm
T5 construct: bought; Val at 176; also called Human Fc gamma RIIIA/CD16a (V176) Protein, His Tag
T5 sequence (P08637 17-208 F176V limits assumed): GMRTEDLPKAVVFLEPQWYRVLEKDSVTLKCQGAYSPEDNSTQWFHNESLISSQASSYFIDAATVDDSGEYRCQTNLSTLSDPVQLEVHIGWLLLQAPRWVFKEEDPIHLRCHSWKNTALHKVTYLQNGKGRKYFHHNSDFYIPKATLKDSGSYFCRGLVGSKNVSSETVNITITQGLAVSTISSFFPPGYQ
From the text: as §1

FcRn [2] = target: T6, FcRn (human, UniProt P55899 24-297; P61769 21-119); experiment: SPR (Biacore T200), antibody captured on protein A sensor chip, FcRn-Acro as analyte; analyte range 1000nm-15.625nm
T6 construct: bought; also called FcγRn; FcRn-Acro
From the text: as §1

FcγRI-Sino [3] = target: T3, FcγRI-Sino; experiment: SPR Biacore T200; binder captured on protein A chip, Fc receptor as analyte
Description: (§2) Binding affinities of the fusion proteins PDL1-TGFbR2-3A (IgG1) (or PDL1-TGFbR2-3A-IgG1) and PDL1-TGFbR2-3A-IgG4 to human Fc receptors were measured by surface plasmon resonance (SPR) using Biacore™ T200 biosensor equipped with pre-immobilized protein A sensor chips. The Fc receptors included FcγRI-Sino, FcγRIIA-R167-Sino, FcγRIIIA-F176-Sino, FcγRIIIB-Sino, and FcγRn. A humanized CTLA4 antibody CT4-4G12-IgG1 (CT4-4G12, or 4G12; VH SEQ ID NO: 44, VL SEQ ID NO: 45) was used as a control to test binding affinity to FcγRn.

FcγRIIA-R167-Sino = target: T2, FcγRIIA-R167-Sino; experiment: as above
Description: as §2

FcγRIIIB-Sino = target: T7, FcγRIIIB-Sino (human, UniProt O75015 17-200, limits assumed); experiment: as above
T7 construct: bought; also called FCRIIIB-Sino; CD16b Protein, Human, Recombinant (NA1 allotypes, His Tag)
T7 sequence (O75015 other isoform, or with tags, fused parts or gaps limits assumed): as the sequence (O75015 other isoform, or with tags, fused parts or gaps limits assumed) above
Description: as §2

FcRn [4] = target: T6, FcRn; experiment: as above
Description: as §2

human CTLA4 (hCTLA4-His) = human CTLA4 (hCTLA4-His) (human, UniProt P16410 36-161, limits assumed); experiment: SPR Biacore T200; binder captured on protein A chip, target as analyte
Chain of human CTLA4 (hCTLA4-His) (P16410 36-161 limits assumed): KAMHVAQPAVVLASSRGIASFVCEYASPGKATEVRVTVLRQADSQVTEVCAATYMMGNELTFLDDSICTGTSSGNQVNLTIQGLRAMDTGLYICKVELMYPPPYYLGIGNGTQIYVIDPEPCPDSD
Description: Binding affinities of the fusion proteins against human CTLA4 (hCTLA4-His) or human PD-L1 (hPDL1) were measured by surface plasmon resonance (SPR) using Biacore™ T200 biosensor equipped with pre-immobilized protein A sensor chips. A CTLA4 antibody CT4-4G12-IgG1 (CT4) was used as a control. ATOR1015-CD86 (CD86) and KN035-IgG1 (with D265A mutation in heavy chain constant domain) were also used as controls.

Row | Kd (FcγRI-Sino [1]) [µM] | Kd (FcγRIIA-H167-Acro) [µM] | Kd (FcγRIIIB-NA1-Acro) [µM] | Kd (FcγRIIIA-V176-Acro) [µM] | Kd (FcRn [2]) [µM] | Kd (FcγRI-Sino [3]) [µM] | Kd (FcγRIIA-R167-Sino) [µM] | Kd (FcγRIIIB-Sino) [µM] | Kd (FcRn [4]) [µM] | Kd (human CTLA4 (hCTLA4-His)) [µM] | koff (human CTLA4 (hCTLA4-His)) [s⁻¹] | kon (human CTLA4 (hCTLA4-His)) [M⁻¹ s⁻¹] | Binder
1 | 0.194 | 0.426 | 0.479 | 0.0755 | 0.527 |  |  |  |  |  |  |  | PDL1-mIL7-3A (antibody, human IgG1, lambda, IgG1 immunocytokine) heavy: EVQLLESGGGLVQPGGSLRLSCAASGFTFSSYIMMWVRQAPGKGLEWVSSIYPSGGITFYADTVKGRFTISRDNSKNTLYLQMNSLRAEDTAVYYCARIKLGTVTTVDYWGQGTLVTVSSASTKGPSVFPLAPSSKSTSGGTAALGCLVKDYFPEPVTVSWNSGALTSGVHTFPAVLQSSGLYSLSSVVTVPSSSLGTQTYICNVNHKPSNTKVDKKVEPKSCDKTHTCPPCPAPELLGGPSVFLFPPKPKDTLMISRTPEVTCVVVDVSHEDPEVKFNWYVDGVEVHNAKTKPREEQYNSTYRVVSVLTVLHQDWLNGKEYKCKVSNKALPAPIEKTISKAKGQPREPQVYTLPPSRDEGGGGSGGGGSECHIKDKEGKAYESVLMISIDELDKMTGTDSNCPNNEPNFFRKHVCDDTKEAAFLNRAARKLKQFLKMNISEEFNVHLLTVSQGTQTLVNCTSKEEKNVKEQKKNDACFLKRLLREIKTCWNKILKGSIGGGGSGGGGSVSLTCLVKGFYPSDIAVEWESNGQPENNYKTTPPVLDSDGSFFLYSKLTVDKSRWQQGNVFSCSVMHEALHNHYTQKSLSLSPGA light: QSALTQPASVSGSPGQSITISCTGTSSDVGGYNYVSWYQQHPGKAPKLMIYDVSNRPSGVSNRFSGSKSGNTASLTISGLQAEDEADYYCSSYTSSSTRVFGTGTKVTVLGQPKANPTVTLFPPSSEELQANKATLVCLISDFYPGAVTVAWKADGSPVKAGVETTKPSKQSNNKYAASSYLSLTPEQWKSHRSYSCQVTHEGSTVEKTVAPTECS
2 | 0.101 | 1.05 | 33.1 | 0.263 | 1.25 | 0.00652 | 0.692 | 1.21 |  |  |  |  | PDL1-avelumab (antibody, human IgG1, lambda, IgG1; also called anti-PD-L1 IgG1 antibody; PD-L1 antibody) heavy: not shown light: QSALTQPASVSGSPGQSITISCTGTSSDVGGYNYVSWYQQHPGKAPKLMIYDVSNRPSGVSNRFSGSKSGNTASLTISGLQAEDEADYYCSSYTSSSTRVFGTGTKVTVLGQPKANPTVTLFPPSSEELQANKATLVCLISDFYPGAVTVAWKADGSPVKAGVETTKPSKQSNNKYAASSYLSLTPEQWKSHRSYSCQVTHEGSTVEKTVAPTECS
3 | 0.0271 | 0.115 | 0.501 | 0.0173 | 0.16 |  |  |  |  |  |  |  | PDL1-mIL7-3A-mIFNa4 (antibody, human IgG1, lambda, 3A-HC format: mIL7 at the 3A site, mIFNa4 at the heavy chain C-terminus through a linker) heavy: EVQLLESGGGLVQPGGSLRLSCAASGFTFSSYIMMWVRQAPGKGLEWVSSIYPSGGITFYADTVKGRFTISRDNSKNTLYLQMNSLRAEDTAVYYCARIKLGTVTTVDYWGQGTLVTVSSASTKGPSVFPLAPSSKSTSGGTAALGCLVKDYFPEPVTVSWNSGALTSGVHTFPAVLQSSGLYSLSSVVTVPSSSLGTQTYICNVNHKPSNTKVDKKVEPKSCDKTHTCPPCPAPELLGGPSVFLFPPKPKDTLMISRTPEVTCVVVDVSHEDPEVKFNWYVDGVEVHNAKTKPREEQYNSTYRVVSVLTVLHQDWLNGKEYKCKVSNKALPAPIEKTISKAKGQPREPQVYTLPPSRDEGGGGSGGGGSECHIKDKEGKAYESVLMISIDELDKMTGTDSNCPNNEPNFFRKHVCDDTKEAAFLNRAARKLKQFLKMNISEEFNVHLLTVSQGTQTLVNCTSKEEKNVKEQKKNDACFLKRLLREIKTCWNKILKGSIGGGGSGGGGSVSLTCLVKGFYPSDIAVEWESNGQPENNYKTTPPVLDSDGSFFLYSKLTVDKSRWQQGNVFSCSVMHEALHNHYTQKSLSLSPGAGGGGSGGGGSGGGGSGGGGSCDLPHTYNLGNKRALTVLEEMRRLPPLSCLKDRKDFGFPLEKVDNQQIQKAQAILVLRDLTQQILNLFTSKDLSATWNATLLDSFCNDLHQQLNDLKACVMQEPPLTQEDSLLAVRTYFHRITVYLRKKKHSLCAWEVIRAEVWRALSSSTNLLARLSEEKE light: QSALTQPASVSGSPGQSITISCTGTSSDVGGYNYVSWYQQHPGKAPKLMIYDVSNRPSGVSNRFSGSKSGNTASLTISGLQAEDEADYYCSSYTSSSTRVFGTGTKVTVLGQPKANPTVTLFPPSSEELQANKATLVCLISDFYPGAVTVAWKADGSPVKAGVETTKPSKQSNNKYAASSYLSLTPEQWKSHRSYSCQVTHEGSTVEKTVAPTECS

More lines, now with the values behind:

Row | Binder | Kd (FcγRI-Sino [1]) [µM] | Kd (FcγRIIA-H167-Acro) [µM] | Kd (FcγRIIIB-NA1-Acro) [µM] | Kd (FcγRIIIA-V176-Acro) [µM] | Kd (FcRn [2]) [µM] | Kd (FcγRI-Sino [3]) [µM] | Kd (FcγRIIA-R167-Sino) [µM] | Kd (FcγRIIIB-Sino) [µM] | Kd (FcRn [4]) [µM] | Kd (human CTLA4 (hCTLA4-His)) [µM] | koff (human CTLA4 (hCTLA4-His)) [s⁻¹] | kon (human CTLA4 (hCTLA4-His)) [M⁻¹ s⁻¹]
4 | PDL1-TGFbR2-3A-IgG4 (antibody, IgG4 subtype of PDL1-TGFbR2-3A) heavy: EVQLLESGGGLVQPGGSLRLSCAASGFTFSSYIMMWVRQAPGKGLEWVSSIYPSGGITFYADTVKGRFTISRDNSKNTLYLQMNSLRAEDTAVYYCARIKLGTVTTVDYWGQGTLVTVSSASTKGPSVFPLAPCSRSTSESTAALGCLVKDYFPEPVTVSWNSGALTSGVHTFPAVLQSSGLYSLSSVVTVPSSSLGTKTYTCNVDHKPSNTKVDKRVESKYGPPCPPCPAPEFLGGPSVFLFPPKPKDTLMISRTPEVTCVVVDVSQEDPEVQFNWYVDGVEVHNAKTKPREEQFNSTYRVVSVLTVLHQDWLNGKEYKCKVSNKGLPSSIEKTISKAKGQPREPQVYTLPPSQEEGGGGSGGGGSIPPHVQKSVNNDMIVTDNNGAVKFPQLCKFCDVRFSTCDNQKSCMSNCSITSICEKPQEVCVAVWRKNDENITLETVCHDPKLPYHDFILEDAASPKCIMKEKKKPGETFFMCSCSSDECNDNIIFSEEYNTSNPDGGGGSGGGGSVSLTCLVKGFYPSDIAVEWESNGQPENNYKTTPPVLDSDGSFFLYSRLTVDKSRWQEGNVFSCSVMHEALHNHYTQKSLSLSLGK light: QSALTQPASVSGSPGQSITISCTGTSSDVGGYNYVSWYQQHPGKAPKLMIYDVSNRPSGVSNRFSGSKSGNTASLTISGLQAEDEADYYCSSYTSSSTRVFGTGTKVTVLGQPKANPTVTLFPPSSEELQANKATLVCLISDFYPGAVTVAWKADGSPVKAGVETTKPSKQSNNKYAASSYLSLTPEQWKSHRSYSCQVTHEGSTVEKTVAPTECS |  |  |  |  |  | 0.273 | 1.78 | 0.576 | 0.214 |  |  | 
5 | CT4-4G12-IgG1 (antibody, IgG1; also called humanized CTLA4 antibody) heavy: not shown light: DIQMTQSPSFLSASVGDRVTITCRAGENIYSYLAWYQQKPGKAPKLLIYNARTLAEGVPSRFSGSGSGTEFTLTISSLQPEDFATYYCQHHYGSPRTFGGGTKLEIKRTVAAPSVFIFPPSDEQLKSGTASVVCLLNNFYPREAKVQWKVDNALQSGNSQESVTEQDSKDSTYSLSSTLTLSKADYEKHKVYACEVTHQGLSSPVTKSFNRGEC |  |  |  |  |  |  |  |  | 0.126 | 0.00591 | 0.00151 | 256000
